Measurements taken from the DeepSol protein solubility set.

experiment: soluble on expression in E. coli; label from the status in PepcDB or PDB records

| Sequence | soluble on expression in E. coli |
| --- | --- |
| MGSSHHHHHHSSGLVPRGSHMAPTEIKPEDDILGRARVRDTPELEAYYDDLAKIETGALWTVANDIEPWEPTPKSAPVHWKWSDLRREVLRAIDLVRPEDAGRRVVYLRNPQRKDVSAACGWLFSGIQTMKAGERAGAHRHAASALRFIMEGSGAYTIVDGHKVELGANDFVLTPNGTWHEHGILESGTECIWQDGLDIPLTNCLEANFYEVHPNDYQTTDIPLNDSPLTYGGPALLPQLDKWDKPYSPLLKYSWEPTYEALLNYAKASDGSPYDGLILRYTNPQTGGHPMLTMGASMQMLRPGEHTKAHRHTGNVIYNVAKGQGYSIVGGKRFDWSEHDIFCVPAWTWHEHCNTQERDDACLFSFNDFPVMEKLGFWAEQALEDNGGHQIVAD | soluble |
| MGSSHHHHHHSSGLVPRGSHMASMTGGQQGRDPFESYNPEFFLYDIFLKFCLKYIDGEICHDLFLLLGKYNILPYDTSNDSIYACTNIKHLDFINPFGVAAGFDKNGVCIDSILKLGFSFIEIGTITPRGQTGNAKPRIFRDVESRSIINSCGFNNMGCDKVTENLILFRKRQEEDKLLSKHIVGVSIGKNKDTVNIVDDLKYCINKIGRYADYIAINVSSPNTPGLRDNQEAGKLKNIILSVKEEIDNLEKNNIMNDEFLWFNTTKKKPLVFVKLAPDLNQEQKKEIADVLLETNIDGMIISNTTTQINDIKSFENKKGGVSGAKLKDISTKFICEMYNYTNKQIPIIASGGIFSGLDALEKIEAGASVCQLYSCLVFNGMKSAVQIKRELNHLLYQRGYYNLKEAIGRKHSKS | soluble |
| MGSSHHHHHHSSGLVPRGSHMGVKSLVPQELIEKIKLISPGTELRKALDDIINANFGALIFLVDDPKKYEDVIQGGFWLDTDFSAEKLYELSKMDGAIVLSEDITKIYYANVHLVPDPTIPTGETGTRHRTAERLAKQTGKVVIAVSRRRNIISLYYKNYKYVVNQVDFLISKVTQAISTLEKYKDNFNKLLSELEVLELENRVTLADVVRTLAKGFELLRIVEEIRPYIVELGEEGRLARMQLRELTEDVDDLLVLLIMDYSSEEVEEETAQNILQDFITRREPSPISISRVLGYDVQQAAQLDDVLVSARGYRLLKTVARIPLSIGYNVVRMFKTLDQISKASVEDLKKVEGIGEKRARAISESISSLKHRKTSE | soluble |
| MGSSHHHHHHSSGLVPRGSHMKARELDVPGAWEITPTIHVDSRGLFFEWLTDHGFRAFAGHSLDVRQVNCSVSSAGVLRGLHFAQLPPSQAKYVTCVSGSVFDVVVDIREGSPTFGRWDSVLLDDQDRRTIYVSEGLAHGFLALQDNSTVMYLCSAEYNPQREHTICATDPTLAVDWPLVDGAAPSLSDRDAAAPSFEDVRASGLLPRWEQTQRFIGEMRGTGSV | soluble |
| MGSSHHHHHHSSGLVPRGSHMNKPIGVIDSGVGGLTVAKEIMRQLPNETIYYLGDIGRCPYGPRPGEQVKQYTVEIARKLMEFDIKMLVIACNTATAVALEYLQKTLSISVIGVIEPGARTAIMTTRNQNVLVLGTEGTIKSEAYRTHIKRINPHVEVHGVACPGFVPLVEQMRYSDPTITSIVIHQTLKRWRNSESDTVILGCTHYPLLYKPIYDYFGGKKTVISSGLETAREVSALLTFSNEHASYTEHPDHRFFATGDTTHITNIIKEWLNLSVNVERISVND | soluble |
| MGSSHHHHHHSSGLVPRGSHMQAATVVINRRALRHNLQRLRELAPASKMVAVVKANAYGHGLLETARTLPDADAFGVARLEEALRLRAGGITKPVLLLEGFFDARDLPTISAQHFHTAVHNEEQLAALEEASLDEPVTVWMKLDTGMHRLGVRPEQAEAFYHRLTQCKNVRQPVNIVSHFARADEPKCGATEKQLAIFNTFCEGKPGQRSIAASGGILLWPQSHFDWVRPGIILYGVSPLKDRSTGADFGCQPVMSLTSSLIAVREHKAGEPVGYGGTWVSERDTRLGVVAMGYGDGYPRAAPSGTPVLVNGREVPIVGRVAMDMICVDLGPQAQDKAGDPVILWGEGLPVERIAEMTKVSAYELITRLTSRVAMKYVD | soluble |
| MGSSHHHHHHSSGLVPRGSHMSVPLYGFTSICGRRPEMEDAVSTIPRFLQSSSGSMLDGRFDPQSAAHFFGVYDGHGGSQVANYCRERMHLALAEEIAKEKPMLCDGDTWLEKWKKALFNSFLRVDSEIESVAPETVGSTSVVAVVFPSHIFVANCGDSRAVLCRGKTALPLSVDHKPDREDEAARIEAAGGKVIQWNGARVFGVLAMSRSIGDRYLKPSIIPDPEVTAVKRVKEDDCLILASDGVWDVMTDEEACEMARKRILLWHKKNAVAGDASLLADERRKEGKDPAAMSAAEYLSKLAIQRGSKDNISVVVVDLKPRRKLK | soluble |
